± gives the standard error. Fewer inactive variants are shown than the library holds.
B1: glmS ribozyme (parent)
chain: AUAAAAGCGCCAGAACUACAGAAAUGUAGUUGACGAGGAGGAGGUUUAUCGAAUUUUCGGCGGAUGCCUCCAAA

Tests used:
Conditions in all cases: with glucosamine-6-phosphate
[1] = variants of: B1; experiment: self-cleavage kobs at 40 uM GlcN6P; higher = faster cleavage; RNA array
In short: (§1)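 Tiles bearing barcoded ribozyme variants, transcribed in situ by E. coli RNA polymerase on sequenced MiSeq chips, were imaged over ~14 h at 37 °C using a hybridised Cy3 probe. Glucosamine-6-phosphate was supplied at 40 μM to 10 mM in HEPES/KCl/Mg(OAc)2 buffer. kobs came from one- or two-exponential decay fits to normalised per-tile medians, and weighted Michaelis–Menten fits then provided kcat and KM.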

[2] = variants of: B1; experiment: self-cleavage kobs at 160 uM GlcN6P; higher = faster cleavage; RNA array
In short: as §1

[3] = variants of: B1; experiment: self-cleavage kobs at 2500 uM GlcN6P; higher = faster cleavage; RNA array
In short: as §1

[4] = variants of: B1; experiment: self-cleavage kobs at 10000 uM GlcN6P; higher = faster cleavage; RNA array
In short: as §1

[5] = variants of: B1; experiment: self-cleavage kobs at 640 uM GlcN6P; higher = faster cleavage; RNA array
In short: as §1

## AUAAAAGCGCCAGAACUACAGAAAUGUAGUUGACGAGGAGGAGGUUGAUCGAAUUUUCGGCGGCUGCCUCCAAA
[1]
  self-cleavage kobs at 40 uM GlcN6P: < 1e-05 s⁻¹

## AUAAAAGCGCCAGAACUACAGAAAUGUAGUUGACGAGGAGGAGGUUUCUCGAAUUUUCGGCGGCUGCCUCCAAA
[1]
  self-cleavage kobs at 40 uM GlcN6P: < 1e-05 s⁻¹
[2]
  self-cleavage kobs at 160 uM GlcN6P: < 1e-05 s⁻¹
[3]
  self-cleavage kobs at 2500 uM GlcN6P: < 1e-05 s⁻¹

## AUAAAAGCGCCAGAACUACAGAAAUGUAGUUGACGAGGAGGAGGUUAAUCGAAUUUUUGGCGGAUGCCUCCAAA
[1]
  self-cleavage kobs at 40 uM GlcN6P: < 1e-05 s⁻¹
[4]
  self-cleavage kobs at 10000 uM GlcN6P: 6e-05 ± 2.1e-05 s⁻¹

## AUAAAAGCGCCAGAACUACAGAAAUGUAGUUGACGAGGAGGAGGUUAAUCGAAUUAUCGGCGGAUGCCUCCAAA
[1]
  self-cleavage kobs at 40 uM GlcN6P: 0.00024 ± 5.3e-05 s⁻¹
[2]
  self-cleavage kobs at 160 uM GlcN6P: 0.000539 ± 0.0001 s⁻¹
[5]
  self-cleavage kobs at 640 uM GlcN6P: 0.00196 ± 0.00027 s⁻¹
[3]
  self-cleavage kobs at 2500 uM GlcN6P: 0.00548 ± 0.0015 s⁻¹
[4]
  self-cleavage kobs at 10000 uM GlcN6P: 0.0235 ± 0.0091 s⁻¹

## AUAAAAGCGCCAGAACUACAGAAAUGUAGUUGACGAGGAGGAGGUUGAUCGAAUUGUCGGUGGAUGGCUUCAAA
[1]
  self-cleavage kobs at 40 uM GlcN6P: 0.000123 ± 6.1e-05 s⁻¹
[5]
  self-cleavage kobs at 640 uM GlcN6P: 0.000281 ± 8.9e-05 s⁻¹
[4]
  self-cleavage kobs at 10000 uM GlcN6P: 4.99e-05 ± 1.9e-05 s⁻¹

## AUAAAAGCGCCAGAACUACAGAAAUGUAGUUGACGAGGAGGAGGUUGAUCGAAUUUUCGGCGGAUGUCUCCAAA
[1]
  self-cleavage kobs at 40 uM GlcN6P: 0.000141 ± 2.6e-05 s⁻¹
[2]
  self-cleavage kobs at 160 uM GlcN6P: 0.000305 ± 5.6e-05 s⁻¹
[5]
  self-cleavage kobs at 640 uM GlcN6P: 0.00064 ± 8.6e-05 s⁻¹
[3]
  self-cleavage kobs at 2500 uM GlcN6P: 0.00125 ± 0.0002 s⁻¹
[4]
  self-cleavage kobs at 10000 uM GlcN6P: 0.00343 ± 0.00067 s⁻¹

## AUAAAAGCGCCAGAACUACAGAAAUGUAGUUGACGAGGAGGAGGUUCAUCGAAUUUUCGGCGCAUGCCUCCAAA
[1]
  self-cleavage kobs at 40 uM GlcN6P: < 1e-05 s⁻¹
[5]
  self-cleavage kobs at 640 uM GlcN6P: < 1e-05 s⁻¹
[3]
  self-cleavage kobs at 2500 uM GlcN6P: < 1e-05 s⁻¹
[4]
  self-cleavage kobs at 10000 uM GlcN6P: < 1e-05 s⁻¹

## AUAAAAGCGCCAGAACUACAGAAAUGUAGUUGACGAGGAGGAGGUUGAUCGAAUUUUAAGCGGAUGCCUACAAA
[1]
  self-cleavage kobs at 40 uM GlcN6P: 4.75e-05 ± 1.8e-05 s⁻¹

## AUAAAAGCGCCAGAACUACAGAAAUGUAGUUGACGAGGAGGAGGUUAAUAGAAAUUUCGGCGGAUGCCUCCAAA
[1]
  self-cleavage kobs at 40 uM GlcN6P: < 1e-05 s⁻¹

## AUAAAAGCGCCAGAACUACAGAAAUGUAGUUGACGAGGAGGAGGUUCUUCGAAUUUUCGGCGGAUGCCUUCAAA
[1]
  self-cleavage kobs at 40 uM GlcN6P: < 1e-05 s⁻¹
[5]
  self-cleavage kobs at 640 uM GlcN6P: 3.27e-05 ± 1.2e-05 s⁻¹
[4]
  self-cleavage kobs at 10000 uM GlcN6P: 0.00044 ± 9.8e-05 s⁻¹

## AUAAAAGCGCCAGAACUACAGAAAUGUAGUUGACGAGGAGGAGGUUAAUCCAAUUUUCGGCGGAUGCCUCCAAA
[1]
  self-cleavage kobs at 40 uM GlcN6P: < 1e-05 s⁻¹
[2]
  self-cleavage kobs at 160 uM GlcN6P: < 1e-05 s⁻¹
[3]
  self-cleavage kobs at 2500 uM GlcN6P: < 1e-05 s⁻¹
[4]
  self-cleavage kobs at 10000 uM GlcN6P: < 1e-05 s⁻¹

## AUAAAAGCGCCAGAACUACAGAAAUGUAGUUGACGAGGAGGAGGUUAAUCUAAUUUUCGGCGGAUGCCUCCAAA
[1]
  self-cleavage kobs at 40 uM GlcN6P: < 1e-05 s⁻¹
[2]
  self-cleavage kobs at 160 uM GlcN6P: < 1e-05 s⁻¹
[4]
  self-cleavage kobs at 10000 uM GlcN6P: < 1e-05 s⁻¹

## AUAAAAGCGCCAGAACUACAGAAAUGUAGUUGACGAGGAGGAGGUUGAUCGAAUUUUCGGCGGAUGCCUUCAAA
[1]
  self-cleavage kobs at 40 uM GlcN6P: 0.000323 ± 3.2e-05 s⁻¹
[2]
  self-cleavage kobs at 160 uM GlcN6P: 0.000641 ± 8.8e-05 s⁻¹
[5]
  self-cleavage kobs at 640 uM GlcN6P: 0.00192 ± 0.00055 s⁻¹
[3]
  self-cleavage kobs at 2500 uM GlcN6P: 0.000583 ± 0.00011 s⁻¹

Reference: the supplement of paper PMC7125110
